These results are taken from article PMC7078309, “New Therapeutic Candidates for the Treatment of Malassezia pachydermatis -Associated Infections” (Scientific Reports, 2020).

By Km is commonly meant the substrate concentration at which the rate is half of its maximum.

Substrate in the series: O=C(O)CCC(=O)C(=O)O
Nature of the series: NAD/NADH quantification kit, Lineweaver-Burk. The class given is biochemical, Malassezia pachydermatis. Particulars: without inhibitor; reverse reaction; 2-OG 15-30 mM; NADH. An excerpt: NAD/NADH quantification kit, Lineweaver-Burk on MpSDH

B1: MpSDH (Malassezia pachydermatis) (protein)
chain: MTGTQALWLRCETKPAEHRSALTPTTAKKLINAGFDITVERDPNRIFDDEEFEKVGCHMAEYHSWPKAPKTTPIIGLKELDTPGPDLEHTHIQFAHCYKHQEGWVDVLARFKRGGGKLYDLEFLEDANGRRVAAFGWHAGFAGAALGLLALAEQVEGKVLGAQTKYPNEEALMEKTREAVRVIRKHRPDGRVTSLIIGALGRCGRGAIDCLEKSGLQSDEIVRWDIQETSAKSGPYQEIIDSDLFVNCIYLSKKIPPFVNKESLQAVGDKRRLGMIVDVSCDTTNPNNPIPVYSINTTFDKPTVAVDGFDKLEVISIDHLPTLLPREASEAFSNDLLPSLLQLPLVTGVAGEEALQHVNEEGKGAVWTRAEALFRKHLAEAEANGA
notes: synthetic gene, C-terminal 6xHN tag (pET6xHN-C), expressed in E. coli BL21, Ni-IMAC, 43 kDa band on SDS-PAGE
Consider B1, for which the Michaelis constant (Km) was determined as 0.25 ± 7.1e-02 mM.
